This data set concerns the molecule itself. Description: SEC; Superdex-75 HR 10/300, Tris buffer with 10 mM EDTA, 1 ml/min; calibrated with alcohol dehydrogenase, BSA, carbonic anhydrase and cytochrome C; nondissociating conditions.

The source of these data is publication PMC6851296, “Atomic-resolution crystal structures of the immune protein conglutinin from cow reveal specific interactions of its binding site with N-acetylglucosamine” (The Journal of Biological Chemistry, 2019).

As usually defined, the stoichiometry N is a count of units in the complex or per binding partner.

B1: recombinant fragment of bovine conglutinin consisting of the CRD and neck regions (rfBC, residues 199-351 of native conglutinin) (domain or fragment)
chain: GSAEANALKQRVTILDGHLRRFQNAFSQYKKAVLFPDGQAVGEKIFKTAGAVKSYSDAEQLCREAKGQLASPRSSAENEAVTQMVRAQEKNAYLSMNDISTEGRFTYPTGEILVYSNWADGEPNNSDEGQPENCVEIFPDGKWNDVPCSKQLLVICEF
notes: vector-derived first five residues (GLAEV in conglutinin); bovine conglutinin, neck plus carbohydrate recognition domain, the C-terminal 153 residues Asn-199 to Phe-351; also called trimeric recombinant neck plus CRD conglutinin fragment; recombinant homotrimeric fragment of conglutinin
For the protein B1, the “stoichiometry N” value turned out to be 3.
